Our source for the Kd values is patent publication US20260243766A1 (published 2026).

The experiment concerns the target R6A/Q72R. In words: SPR.

B1: 10LH (scFv)
scFv: SRNGGDGQSVLTQPPSVSVSPGQTASITCSGDSLGNKYACWYQQKPGQSPVLVIYQDSKRPSGIPERFSGSNSGNTATLTISGTQAMDEADYYCQAWDSSRGYTVVFGTGTKVTVSSQTGGSGGGGSGGGGSGGGGSEVQLLESGGGLVQPGGSLRLSCAASGFTFDSYAMSWVRQAPGKGLEWVSAISGYGGSTYYADSVKGRFTISRDNSKNTLYLQMNSLRAEDTAVYYCAKYTYFLDAFDIWGQGTMVTVSSS
B1 returned a Kd of 18.8 µM.

As a reminder, the Kd is the free concentration of one partner at which half of the binding sites on the other are occupied at equilibrium, for simple one-to-one binding. Higher therefore signals a looser complex.
